Assay results from publication PMC6491591.

What was measured:
[1] = molecular target: endogenous Protein Kinase A catalytic subunit (PKA-Cα) of COS-1 cells; test: co-immunoprecipitation (IP: PKA-Cα antibody), western blot band intensity quantified with ImageJ; conditions: COS-1 cells expressing GRTH-V5, parent: est. 1.1, read off a plot
[2] = molecular target: endogenous Protein Kinase A catalytic subunit (PKA-Cα) of COS-1 cells; test: co-immunoprecipitation (IP: V5 antibody), western blot band intensity quantified with ImageJ; conditions: COS-1 cells expressing GRTH-V5, parent: est. 1.1, read off a plot

response (Arbitrary units) [1] | response (Arbitrary units) [2] | Substance
0.88 | 0.88 | Gonadotropin Regulated Testicular Helicase (GRTH/DDX25), wild type, V5-His tagged (from UniProt Q9UHL0) E165A
0.76 | 0.68 | Gonadotropin Regulated Testicular Helicase (GRTH/DDX25), wild type, V5-His tagged (from UniProt Q9UHL0) E165A; K240A
0.34 | 0.34 | Gonadotropin Regulated Testicular Helicase (GRTH/DDX25), wild type, V5-His tagged (from UniProt Q9UHL0) T239A
